This is an account of results in article PMC3206353.

The term kon denotes the rate constant with which the complex forms. A higher kon goes with fast association. The term Kd denotes the free concentration of one partner at which half of the binding sites on the other are occupied at equilibrium, for simple one-to-one binding. The low end stands for tighter binding, the high end for weaker binding.

What all share (settings): remark: other sources report otherwise
The target of assay [1] is T1, pyrene-labeled ADP-actin filaments (chicken breast muscle actin) (chicken), P68139. In words: stopped-flow fluorescence kinetics.
Assay [2] deals with Mg-ATP-actin monomer (chicken breast muscle actin) (chicken), P68139. In words: inhibition of nucleotide exchange.
For assay [3], the target named is T1, pyrene-labeled ADP-actin filaments …. In words: other fluorescence titration.
Assay [4] has the same target. In words: other fluorescence titration. The source holds these as a separate data set.

B1: wild-type fission yeast cofilin, P78929 1-137 (natural protein)
chain: MSFSGVKVSPECLEAFQELKLGKSLRYVVFKMNDTKTEIVVEKKSTDKDFDTFLGDLPEKDCRYAIYDFEFNLGEGVRNKIIFISWSPDVAPIKSKMVYSSSKDTLRRAFTGIGTDIQATDFSEVAYETVLEKVTRK
modifications: here or on the partner: pyrene (pyrene iodoacetamide) on cysteine-374
For the molecule B1, in assay [1], the kobs (3 µM cofilin, 1 µM filaments) amounted to 73.6 s⁻¹ and the kon was found to be 1.25e+07 M⁻¹ s⁻¹. The molecule further registered a Kd in assay [2] of 80 nM. In assay [3], this molecule displayed a Ka of the cooperative model (Kd = 1/(ω*Ka)) of 0.15 µM⁻¹, a Kd of 330 nM and a binding cooperativity ω of 19.9. Moreover, the Kd in assay [4] was determined as 340 nM.
